sfGFP reporter fluorescence data for 45 variants are collected here from the supplement of paper PMC12783771.

First the molecules themselves.
B1: library; a variant is named by its letters at X, in order (parent)
chain: MNIQIGELAKRTACPVVTIRFYEQEGLLPPPGRSRGNFRLYGEEHVERLQFIRHCRSLDMPLSXVRTLLSYRKRPDQDCGEVXMLLDEHXRQVESRIGALLELXHXLVELREACSGARPAQSCGILQGLSDCVCDTRGTTAHXSD

± gives the standard deviation of the averaged measurements.

Variants of B1 are the subject of data set [1]. As to the kind of experiment: sfGFP reporter fluorescence (15 h) (µM FITC); higher = higher leak. The following applies: library round: Round 3b; ligand: none. In outline: (§1)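 Values are endpoint sfGFP fluorescence given as µM FITC equivalents. Fluorescence was read at 485/528 nm on a Synergy Neo2, and FITC standard curves were prepared in 50 mM sodium borate pH 8.5. Reactions of 1 μL combined BL21 Star (DE3) PANOx-SP extract, pPbrR-sfGFP reporter, 30 μg/mL GamS and linear PbrR templates (PCR-made, Echo-normalized to 5 nM), with 1 µM lead chloride, 30 µM zinc acetate or no metal, for 15 hr at 30 °C.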

Variants of B1 are the subject of data set [2]. The experiment in a line: sfGFP reporter fluorescence (15 h) (µM FITC); higher = stronger transcriptional activation. Conditions: library round: Round 3b. The gist of the method: as §1

Regarding KNAVAP, the sfGFP reporter fluorescence in data set [1] was 0.0482 ± 0.0035; in data set [2] (ligand: 1 µM Pb), 0.142 ± 0.0073; in data set [2] (ligand: 30 µM Zn) it was 0.214 ± 0.025.

KNAVAT: the sfGFP reporter fluorescence in data set [1] was determined as 0.045 ± 0.0035; in data set [2] (ligand: 1 µM Pb), 0.155 ± 0.0086; in data set [2] (ligand: 30 µM Zn), 0.237 ± 0.018.

On to KNAVEP, for which the sfGFP reporter fluorescence in data set [1] is 0.0529 ± 0.0031; in data set [2] (ligand: 1 µM Pb) it was 0.235 ± 0.021; in data set [2] (ligand: 30 µM Zn), 0.211 ± 0.024.

As to KNAVER, the sfGFP reporter fluorescence in data set [1] turned out to be 0.0532 ± 0.0015; in data set [2] (ligand: 1 µM Pb), 0.334 ± 0.025; in data set [2] (ligand: 30 µM Zn), 0.313 ± 0.04.

As for KNAVET, the sfGFP reporter fluorescence was determined as 0.0522 ± 0.0014 in data set [1], 0.261 ± 0.01 in data set [2] (ligand: 1 µM Pb) and 0.223 ± 0.016 in data set [2] (ligand: 30 µM Zn).

For KNITAR, the sfGFP reporter fluorescence came out at 0.0701 ± 0.0068 in data set [1], 0.379 ± 0.032 in data set [2] (ligand: 1 µM Pb) and 1.07 ± 0.19 in data set [2] (ligand: 30 µM Zn).

With KNITAT, the sfGFP reporter fluorescence in data set [1] was determined as 0.0655 ± 0.0027; in data set [2] (ligand: 1 µM Pb), 0.358 ± 0.021; in data set [2] (ligand: 30 µM Zn) it was 0.972 ± 0.077.

As to DIAVEP, the sfGFP reporter fluorescence in data set [1] was determined as 0.0409 ± 0.0007; in data set [2] (ligand: 1 µM Pb), 0.0827 ± 0.0059; in data set [2] (ligand: 30 µM Zn), 0.04514 ± 0.00039.

In the case of DIAVET, the sfGFP reporter fluorescence in data set [1] came out at 0.0432 ± 0.0019; in data set [2] (ligand: 1 µM Pb), 0.07 ± 0.0044; in data set [2] (ligand: 30 µM Zn) it was 0.0437 ± 0.002.

On to DIAVER, for which the sfGFP reporter fluorescence was determined as 0.0436 ± 0.004 in data set [1], 0.0866 ± 0.0039 in data set [2] (ligand: 1 µM Pb) and 0.0484 ± 0.0041 in data set [2] (ligand: 30 µM Zn).

For KIAVAP, the sfGFP reporter fluorescence in data set [1] amounted to 0.0556 ± 0.001; in data set [2] (ligand: 1 µM Pb), 0.772 ± 0.15; in data set [2] (ligand: 30 µM Zn) it was 0.0487 ± 0.0065.

Consider KIAVAT, for which the figures for the sfGFP reporter fluorescence in data set [1], in data set [2] (ligand: 1 µM Pb) and in data set [2] (ligand: 30 µM Zn) were 0.0607 ± 0.0022, 1.25 ± 0.024 and 0.0576 ± 0.0032, respectively.

As for KIAVAR, the sfGFP reporter fluorescence in data set [1] turned out to be 0.0586 ± 0.0045; in data set [2] (ligand: 1 µM Pb), 1.08 ± 0.06; in data set [2] (ligand: 30 µM Zn), 0.0523 ± 0.0046.

Consider KNATHR, for which the sfGFP reporter fluorescence in data set [1] came to 0.0571 ± 0.0019; in data set [2] (ligand: 1 µM Pb) it was 0.412 ± 0.041; in data set [2] (ligand: 30 µM Zn), 0.602 ± 0.08.

Turning to KNATHT, the sfGFP reporter fluorescence in data set [1] is 0.0681 ± 0.0016; in data set [2] (ligand: 1 µM Pb), 0.443 ± 0.015; in data set [2] (ligand: 30 µM Zn), 0.764 ± 0.13.

As to KIITHR, the figures for the sfGFP reporter fluorescence in data set [1], in data set [2] (ligand: 1 µM Pb) and in data set [2] (ligand: 30 µM Zn) were 0.0506 ± 0.0028, 0.485 ± 0.067 and 0.0734 ± 0.0022, respectively.

Turning to KIITHT, the sfGFP reporter fluorescence in data set [1] worked out at 0.0492 ± 0.0029; in data set [2] (ligand: 1 µM Pb), 0.471 ± 0.031; in data set [2] (ligand: 30 µM Zn), 0.0728 ± 0.0057.

In the case of KIIKAT, the sfGFP reporter fluorescence in data set [1] came out at 0.0413 ± 0.0042; in data set [2] (ligand: 1 µM Pb), 0.17 ± 0.027; in data set [2] (ligand: 30 µM Zn), 0.0483 ± 0.0033.

On to DNATAR, for which the sfGFP reporter fluorescence was determined as 0.0439 ± 0.0034 in data set [1], 0.0477 ± 0.0023 in data set [2] (ligand: 1 µM Pb) and 0.0627 ± 0.0048 in data set [2] (ligand: 30 µM Zn).

Regarding DNATAT, the values for the sfGFP reporter fluorescence in data set [1], in data set [2] (ligand: 1 µM Pb) and in data set [2] (ligand: 30 µM Zn) were 0.0419 ± 0.0058, 0.0459 ± 0.0022 and 0.059 ± 0.0073, respectively.

Take DIIVET: the results for the sfGFP reporter fluorescence in data set [1], in data set [2] (ligand: 1 µM Pb) and in data set [2] (ligand: 30 µM Zn) were 0.0433 ± 0.0015, 0.0933 ± 0.0025 and 0.0469 ± 0.0019, respectively.

Consider DIIVER, for which the sfGFP reporter fluorescence in data set [1] was 0.0467 ± 0.0027; in data set [2] (ligand: 1 µM Pb), 0.0917 ± 0.0042; in data set [2] (ligand: 30 µM Zn) it was 0.047 ± 0.0038.

Turning to KIIKET, the sfGFP reporter fluorescence in data set [1] was 0.0423 ± 0.0019; in data set [2] (ligand: 1 µM Pb) it was 0.128 ± 0.0066; in data set [2] (ligand: 30 µM Zn), 0.0466 ± 0.001.

Take KIIKER: the sfGFP reporter fluorescence in data set [1] was found to be 0.0441 ± 0.0037; in data set [2] (ligand: 1 µM Pb), 0.149 ± 0.017; in data set [2] (ligand: 30 µM Zn) it was 0.0485 ± 0.0035.

With KIITAP, the sfGFP reporter fluorescence in data set [1] came out at 0.0473 ± 0.0044; in data set [2] (ligand: 1 µM Pb), 0.308 ± 0.022; in data set [2] (ligand: 30 µM Zn), 0.051 ± 0.005.

In the case of KIITAT, the sfGFP reporter fluorescence was determined as 0.0466 ± 0.0011 in data set [1], 0.39 ± 0.032 in data set [2] (ligand: 1 µM Pb) and 0.05466 ± 0.00019 in data set [2] (ligand: 30 µM Zn).

Regarding DIAVHR, the sfGFP reporter fluorescence turned out to be 0.0454 ± 0.0066 in data set [1], 0.104 ± 0.0012 in data set [2] (ligand: 1 µM Pb) and 0.0493 ± 0.0043 in data set [2] (ligand: 30 µM Zn).

As for DIAVHT, the sfGFP reporter fluorescence stood at 0.0457 ± 0.0036 in data set [1], 0.102 ± 0.0083 in data set [2] (ligand: 1 µM Pb) and 0.0483 ± 0.0036 in data set [2] (ligand: 30 µM Zn).

As for KNITET, the sfGFP reporter fluorescence turned out to be 0.0629 ± 0.0071 in data set [1], 0.318 ± 0.015 in data set [2] (ligand: 1 µM Pb) and 0.944 ± 0.15 in data set [2] (ligand: 30 µM Zn).

Turning to KNITER, the sfGFP reporter fluorescence in data set [1] is 0.0631 ± 0.0055; in data set [2] (ligand: 1 µM Pb), 0.311 ± 0.029; in data set [2] (ligand: 30 µM Zn) it was 0.926 ± 0.12.

Take DNAVET: the results for the sfGFP reporter fluorescence in data set [1], in data set [2] (ligand: 1 µM Pb) and in data set [2] (ligand: 30 µM Zn) were 0.0438 ± 0.0014, 0.0536 ± 0.0031 and 0.0603 ± 0.0036, respectively.

For the variant DNAVER, the sfGFP reporter fluorescence was found to be 0.0468 ± 0.0035 in data set [1], 0.0511 ± 0.0015 in data set [2] (ligand: 1 µM Pb) and 0.062 ± 0.0046 in data set [2] (ligand: 30 µM Zn).

Turning to KIIVAT, the sfGFP reporter fluorescence in data set [1] came to 0.0506 ± 0.0022; in data set [2] (ligand: 1 µM Pb) it was 0.424 ± 0.013; in data set [2] (ligand: 30 µM Zn), 0.0534 ± 0.0041.

Turning to DIAVAT, the sfGFP reporter fluorescence in data set [1] came out at 0.0441 ± 0.0047; in data set [2] (ligand: 1 µM Pb) it was 0.096 ± 0.0083; in data set [2] (ligand: 30 µM Zn), 0.0457 ± 0.0025.

On to DIAVAR, for which the sfGFP reporter fluorescence in data set [1] was 0.0429 ± 0.0036; in data set [2] (ligand: 1 µM Pb), 0.102 ± 0.0042; in data set [2] (ligand: 30 µM Zn), 0.047 ± 0.0015.

For DIAVAP, the sfGFP reporter fluorescence in data set [1] came out at 0.0451 ± 0.0067; in data set [2] (ligand: 1 µM Pb), 0.0922 ± 0.0043; in data set [2] (ligand: 30 µM Zn), 0.0441 ± 0.0071.

For the variant KNATAP, the sfGFP reporter fluorescence was 0.052 ± 0.0055 in data set [1], 0.226 ± 0.015 in data set [2] (ligand: 1 µM Pb) and 0.311 ± 0.038 in data set [2] (ligand: 30 µM Zn).

On to KNATAR, for which the values for the sfGFP reporter fluorescence in data set [1], in data set [2] (ligand: 1 µM Pb) and in data set [2] (ligand: 30 µM Zn) were 0.0517 ± 0.005, 0.302 ± 0.012 and 0.406 ± 0.066, respectively.

As to KNATAT, the sfGFP reporter fluorescence in data set [1] came to 0.0532 ± 0.0029; in data set [2] (ligand: 1 µM Pb), 0.305 ± 0.021; in data set [2] (ligand: 30 µM Zn), 0.514 ± 0.057.

Regarding KNAKET, the sfGFP reporter fluorescence in data set [1] is 0.0595 ± 0.0029; in data set [2] (ligand: 1 µM Pb) it was 0.248 ± 0.0068; in data set [2] (ligand: 30 µM Zn) it was 0.569 ± 0.068.

KNAKER: the sfGFP reporter fluorescence came to 0.0626 ± 0.0049 in data set [1], 0.296 ± 0.036 in data set [2] (ligand: 1 µM Pb) and 0.621 ± 0.066 in data set [2] (ligand: 30 µM Zn).

As for KNIVET, the sfGFP reporter fluorescence in data set [1] turned out to be 0.112 ± 0.0075; in data set [2] (ligand: 1 µM Pb) it was 0.514 ± 0.055; in data set [2] (ligand: 30 µM Zn) it was 1.2 ± 0.06.

KNIVER: the sfGFP reporter fluorescence worked out at 0.115 ± 0.006 in data set [1], 0.585 ± 0.046 in data set [2] (ligand: 1 µM Pb) and 1.4 ± 0.2 in data set [2] (ligand: 30 µM Zn).

Consider DIITER, for which the sfGFP reporter fluorescence was 0.0474 ± 0.0038 in data set [1], 0.0576 ± 0.0022 in data set [2] (ligand: 1 µM Pb) and 0.0446 ± 0.0022 in data set [2] (ligand: 30 µM Zn).

DIITET: the values for the sfGFP reporter fluorescence in data set [1], in data set [2] (ligand: 1 µM Pb) and in data set [2] (ligand: 30 µM Zn) were 0.0436 ± 0.0034, 0.0535 ± 0.002 and 0.047 ± 0.0035, respectively.
